Assay [1] concerns the target Menangle virus P protein C-terminal region, P209-388 (coiled-coil, linker and binding domain) (Menangle virus). Briefly: AUC.
Assay [2] shares this target. Kind of assay: SEC-MALLS.

Results on one substance are retold here after publication PMC8472933.

In general, Kd refers to the constant that tells how readily two partners part at equilibrium. One may read the stoichiometry N as a count of units in the complex or per binding partner.

For “Menangle virus P protein C-terminal region, P209-388 (coiled-coil, linker and binding domain) (domain or fragment)”, in assay [1], the Kd was determined as 58 nM and the stoichiometry N is 4. Besides, in assay [2], the stoichiometry N is 4.
